Assay results as given in US20190322730A1 (NGM BIOPHARMACEUTICALS, published 2019).
Positions count from the first letter of the chain named. In names and notes the source's numbering stands.

Key:
[1] = biological target: T1, cynomolgus monkey complement component C3 (cynomolgus monkey, UniProt P01024 24-1663 (human entry)); test: cell-based or functional assay
[2] = biological target: T2, human complement component C3 (human, UniProt P01024 23-667; P01024 672-1663); test: cell-based or functional assay
[3] = biological target: T3, Factor Bb (UniProt P00751 260-764); test: binding screen of Example 5; method and unit not stated
T3 construct: domain: Factor Bb

[4] = biological target: T2, human complement component C3; test: as above
[5] = biological target: T4, C3d (UniProt P01024 1002-1303, limits assumed); test: as above
T4 construct: domain: C3d

[6] = biological target: C3b (human, UniProt P01024 23-667; P01024 749-1663); test: as above
[7] = biological target: C3a (human, UniProt P01024 672-748); test: as above
[8] = biological target: T2, human complement component C3; test: SPR (Biacore)
Description: The binding affinities of exemplary anti-C3 antibodies to human C3 and cyno C3 were measured using a Biacore system (GE Healthcare LifeSciences). Briefly, anti-Fc antibody (Sigma-Aldrich) was immobilized on all four flow cells of a CM5 chip using amine coupling reagents (GE Healthcare LifeSciences). Antibodies were captured on flow cells 2, 3, and 4 using flow cell 1 as a reference. Concentrations ranging from 0.62-40 nM of human C3 or cyno C3 were injected at a flow rate of 50 μL/min at 37° C. Kinetic data were collected over time and fit using the simultaneous global fit equation to yield affinity constants (KD values) for each antibody.

[9] = biological target: T1, cynomolgus monkey complement component …; test: cell-based or functional assay; remark: listed apart in the source
[10] = biological target: T2, human complement component C3; test: cell-based or functional assay; remark: listed apart in the source
[11] = biological target: T2, human complement component C3; test: cell-based or functional assay; remark: listed apart in the source

T4 sequence (P01024 1002-1303 limits assumed): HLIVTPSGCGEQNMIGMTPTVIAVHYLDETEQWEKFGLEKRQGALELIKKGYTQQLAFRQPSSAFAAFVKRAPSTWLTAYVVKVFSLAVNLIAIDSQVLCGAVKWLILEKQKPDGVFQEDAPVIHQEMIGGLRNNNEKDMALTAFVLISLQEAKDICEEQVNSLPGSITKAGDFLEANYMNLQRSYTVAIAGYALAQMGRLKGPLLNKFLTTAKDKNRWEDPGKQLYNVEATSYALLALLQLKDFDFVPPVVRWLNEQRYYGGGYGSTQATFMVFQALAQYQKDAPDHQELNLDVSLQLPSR
Sequence of C3b (P01024 23-667 limits assumed, chain 1 of 2): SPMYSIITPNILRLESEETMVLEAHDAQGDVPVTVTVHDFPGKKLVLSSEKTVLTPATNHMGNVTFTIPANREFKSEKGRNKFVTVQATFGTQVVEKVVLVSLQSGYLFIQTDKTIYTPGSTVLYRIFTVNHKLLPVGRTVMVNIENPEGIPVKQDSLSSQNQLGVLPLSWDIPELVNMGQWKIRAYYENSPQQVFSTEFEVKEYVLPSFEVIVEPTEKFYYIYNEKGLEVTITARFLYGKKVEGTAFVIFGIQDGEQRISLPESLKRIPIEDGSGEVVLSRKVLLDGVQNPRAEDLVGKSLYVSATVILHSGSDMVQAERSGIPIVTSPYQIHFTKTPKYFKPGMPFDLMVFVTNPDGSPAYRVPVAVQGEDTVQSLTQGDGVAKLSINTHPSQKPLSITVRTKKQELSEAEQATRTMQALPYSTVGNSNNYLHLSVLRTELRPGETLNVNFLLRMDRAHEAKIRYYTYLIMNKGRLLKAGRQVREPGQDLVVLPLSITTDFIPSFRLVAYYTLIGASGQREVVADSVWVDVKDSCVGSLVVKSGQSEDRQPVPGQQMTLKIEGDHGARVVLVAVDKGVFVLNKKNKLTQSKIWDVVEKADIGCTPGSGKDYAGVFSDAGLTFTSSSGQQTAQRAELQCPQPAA
Sequence of C3b (P01024 749-1663 limits assumed, chain 2 of 2): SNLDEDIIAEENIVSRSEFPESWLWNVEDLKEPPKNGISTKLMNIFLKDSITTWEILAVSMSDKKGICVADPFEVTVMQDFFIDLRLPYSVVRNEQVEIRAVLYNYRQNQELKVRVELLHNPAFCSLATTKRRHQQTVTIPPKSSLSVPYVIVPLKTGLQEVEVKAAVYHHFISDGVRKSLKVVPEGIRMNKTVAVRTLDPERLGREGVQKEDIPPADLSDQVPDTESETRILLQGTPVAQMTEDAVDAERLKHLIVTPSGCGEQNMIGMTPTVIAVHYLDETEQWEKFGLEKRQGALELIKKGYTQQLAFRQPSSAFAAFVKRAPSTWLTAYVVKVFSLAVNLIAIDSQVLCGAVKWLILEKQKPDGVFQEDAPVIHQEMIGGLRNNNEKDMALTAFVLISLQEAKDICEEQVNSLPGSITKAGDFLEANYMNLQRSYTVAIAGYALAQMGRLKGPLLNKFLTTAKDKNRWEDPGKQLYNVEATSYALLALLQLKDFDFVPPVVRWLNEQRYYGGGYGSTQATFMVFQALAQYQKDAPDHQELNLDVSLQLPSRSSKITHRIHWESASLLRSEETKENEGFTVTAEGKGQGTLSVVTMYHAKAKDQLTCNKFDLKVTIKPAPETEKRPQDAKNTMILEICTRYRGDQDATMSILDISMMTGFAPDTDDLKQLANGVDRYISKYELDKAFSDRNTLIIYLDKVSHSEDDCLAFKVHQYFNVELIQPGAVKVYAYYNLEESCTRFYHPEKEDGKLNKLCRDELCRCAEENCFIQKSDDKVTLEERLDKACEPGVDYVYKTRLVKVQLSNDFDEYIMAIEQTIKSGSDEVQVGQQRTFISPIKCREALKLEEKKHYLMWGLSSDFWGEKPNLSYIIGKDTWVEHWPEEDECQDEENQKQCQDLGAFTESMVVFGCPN
T2 sequence (P01024 23-667, chain 1 of 2): as the sequence (P01024 23-667 limits assumed, chain 1 of 2) above
T2 sequence (P01024 672-1663, chain 2 of 2): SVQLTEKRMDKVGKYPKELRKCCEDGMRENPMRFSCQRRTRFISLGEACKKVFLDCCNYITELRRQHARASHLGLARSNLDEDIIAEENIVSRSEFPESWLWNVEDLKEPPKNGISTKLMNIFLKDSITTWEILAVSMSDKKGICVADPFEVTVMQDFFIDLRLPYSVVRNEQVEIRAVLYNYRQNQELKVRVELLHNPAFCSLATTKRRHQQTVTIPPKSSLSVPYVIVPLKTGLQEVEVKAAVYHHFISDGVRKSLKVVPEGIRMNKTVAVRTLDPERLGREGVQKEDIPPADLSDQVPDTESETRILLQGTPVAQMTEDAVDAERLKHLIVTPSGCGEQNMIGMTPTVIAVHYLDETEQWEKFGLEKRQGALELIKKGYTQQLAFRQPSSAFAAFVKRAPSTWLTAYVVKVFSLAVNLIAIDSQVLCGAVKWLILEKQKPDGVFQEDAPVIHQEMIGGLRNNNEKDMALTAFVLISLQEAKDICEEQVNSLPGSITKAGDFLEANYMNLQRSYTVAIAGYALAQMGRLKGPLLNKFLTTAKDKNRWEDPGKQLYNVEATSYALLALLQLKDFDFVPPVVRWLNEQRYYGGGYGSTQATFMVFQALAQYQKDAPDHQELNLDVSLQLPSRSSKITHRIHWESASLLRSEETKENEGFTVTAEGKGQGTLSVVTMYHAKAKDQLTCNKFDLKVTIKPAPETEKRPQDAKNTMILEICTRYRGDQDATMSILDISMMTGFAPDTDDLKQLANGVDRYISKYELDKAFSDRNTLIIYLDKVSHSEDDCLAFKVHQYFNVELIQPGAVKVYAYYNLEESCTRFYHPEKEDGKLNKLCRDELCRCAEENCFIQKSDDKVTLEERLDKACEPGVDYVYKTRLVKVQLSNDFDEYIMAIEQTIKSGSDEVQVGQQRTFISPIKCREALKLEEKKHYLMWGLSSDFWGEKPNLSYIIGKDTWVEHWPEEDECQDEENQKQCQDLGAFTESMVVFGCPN
Sequence of C3a (P01024 672-748 limits assumed): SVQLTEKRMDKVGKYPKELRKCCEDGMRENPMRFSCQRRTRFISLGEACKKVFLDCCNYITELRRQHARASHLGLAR
T1 sequence (P01024 other isoform, or with tags, fused parts or gaps): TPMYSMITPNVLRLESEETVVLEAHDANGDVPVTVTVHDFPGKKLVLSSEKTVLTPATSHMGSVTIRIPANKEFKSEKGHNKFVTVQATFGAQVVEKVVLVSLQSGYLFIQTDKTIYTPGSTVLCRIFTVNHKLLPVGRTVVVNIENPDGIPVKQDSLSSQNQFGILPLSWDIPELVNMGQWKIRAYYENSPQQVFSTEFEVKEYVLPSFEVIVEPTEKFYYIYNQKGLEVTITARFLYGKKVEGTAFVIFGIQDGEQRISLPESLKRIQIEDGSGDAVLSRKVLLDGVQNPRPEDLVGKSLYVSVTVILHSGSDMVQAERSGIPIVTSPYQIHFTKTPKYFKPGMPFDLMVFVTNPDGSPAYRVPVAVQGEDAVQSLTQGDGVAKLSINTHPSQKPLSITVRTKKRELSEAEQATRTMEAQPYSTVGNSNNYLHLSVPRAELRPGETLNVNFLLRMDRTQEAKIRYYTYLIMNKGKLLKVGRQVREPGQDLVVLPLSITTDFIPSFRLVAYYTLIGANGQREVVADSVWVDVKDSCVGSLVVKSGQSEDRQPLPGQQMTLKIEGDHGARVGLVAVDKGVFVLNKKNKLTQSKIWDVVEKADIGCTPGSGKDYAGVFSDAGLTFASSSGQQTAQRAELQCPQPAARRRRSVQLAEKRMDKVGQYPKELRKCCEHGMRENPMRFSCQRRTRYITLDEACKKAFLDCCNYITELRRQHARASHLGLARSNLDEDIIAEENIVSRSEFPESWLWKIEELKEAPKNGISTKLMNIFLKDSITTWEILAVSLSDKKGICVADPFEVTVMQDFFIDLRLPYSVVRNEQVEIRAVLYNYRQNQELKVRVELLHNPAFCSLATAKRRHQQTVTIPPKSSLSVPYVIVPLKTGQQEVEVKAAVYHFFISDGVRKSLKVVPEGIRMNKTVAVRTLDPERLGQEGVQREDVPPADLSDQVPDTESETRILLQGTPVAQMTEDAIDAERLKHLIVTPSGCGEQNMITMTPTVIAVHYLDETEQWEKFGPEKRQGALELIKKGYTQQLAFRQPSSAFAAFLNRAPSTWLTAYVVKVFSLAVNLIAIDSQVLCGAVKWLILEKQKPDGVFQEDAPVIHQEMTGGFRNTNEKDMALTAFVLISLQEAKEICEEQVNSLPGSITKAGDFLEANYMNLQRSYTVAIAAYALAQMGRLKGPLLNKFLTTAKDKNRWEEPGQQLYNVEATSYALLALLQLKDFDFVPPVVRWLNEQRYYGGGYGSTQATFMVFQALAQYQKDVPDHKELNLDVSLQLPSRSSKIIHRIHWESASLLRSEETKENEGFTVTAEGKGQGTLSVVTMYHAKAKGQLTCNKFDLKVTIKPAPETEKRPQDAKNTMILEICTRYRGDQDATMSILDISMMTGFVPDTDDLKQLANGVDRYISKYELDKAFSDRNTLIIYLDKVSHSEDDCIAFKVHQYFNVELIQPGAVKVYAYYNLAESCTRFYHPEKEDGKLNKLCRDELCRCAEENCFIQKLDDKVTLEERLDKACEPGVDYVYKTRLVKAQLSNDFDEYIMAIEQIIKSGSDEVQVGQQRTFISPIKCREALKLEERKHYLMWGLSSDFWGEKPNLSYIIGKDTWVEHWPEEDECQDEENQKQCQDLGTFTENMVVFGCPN

B1: antibody 62B11 (antibody, V domains shown)
VH: EVKLVESGGGLVQPGGSLKLSCAASGFTFSSYTMSWVRQTPEKRLEWVAYISSGGGTTYYPDTVKGRFTVSRDNAKNTLYLQMSSLRSEDTAMYSCARRYYRGSSLWYFDVWGAGTTVTVSS
VL: DIVMTQSPSSLTVTAGEKVTMSCKSSQSLFNSGSQKNFLTWYQQRPGQPPKLLIYWASTRESGVPDRFTGSGSGTDFTLTISSVQAEDLAVYYCQNDYSYPLTFGAGTKLELK
notes: Mouse hybridoma antibody
In the case of B1, the “Hemolytic Assay IC50, Cyno AP” value [1] is reported as about 11 nM, the “Hemolytic Assay IC50, Cyno CP” value [1] is reported as about 1 nM and the “Hemolytic Assay IC50, Human AP” value [2] is reported as 6.6 nM. The “Hemolytic Assay IC50, Human CP” value [2] was 4.2 nM, the “binding relative to negative control mIgG2” value [3] was -0.02 and the “binding relative to negative control mIgG2” value [4] was 0.83. For the same binder, the “binding relative to negative control mIgG2” value [5] was -0.02, the “binding relative to negative control mIgG2” value [6] was 0.76 and the “binding relative to negative control mIgG2” value [7] was -0.03.

B2: antibody 27A8 (antibody, V domains shown)
VH: QVQLLQPGAEFVKPGASVKLSCKASGYTFTDYWINWVKQRPGQGLEWIGNIYPGSTSANYNEKFKSKATLTIDTSSITAYMQLSSLTSDDSAVYYCARYGYDSWFAYWGQGTLVTVSA
VL: DVVLTQTPLSLPVNIGDQASISCKSTKSLLNSDGFTYLDWFLQKPGQSPHLLIYLVSNRFSGIPDRFSGSGSETDFTLKISRVEAEDLGVYYCFQSNYLPLTFGSGTKLEIK
For B2, the “Hemolytic Assay IC50, Cyno AP” value [1] was 9.6 nM, the “Hemolytic Assay IC50, Human AP” value [2] was 8.5 nM and the “Hemolytic Assay IC50, Human CP” value [2] was 7.6 nM.

B3: antibody Hz38G10(G56A) (antibody, human IgG1, kappa, V domains shown)
VH: QVQLVQSGAEVKKPGASVKVSCKASGYTFTDFYMDWVRQAPGQRLEWMGYIYPHNAGTTYNQQFTGRVTITVDKSASTAYMELSSLRSEDTAVYYCARRGGFDFDYWGQGTLVTVSS
VL: DIQMTQSPSSLSASVGDRVTITCKASENVDTYVSWYQQKPGKAPKLLIYGASNRYTGVPSRFSGSGSGTDFTFTISSLQPEDIATYHCGQSHSYPLTFGQGTKLEIKR
notes: the light chain is the Hz38G10 light chain
For B3, the Kd [8] was 0.27 nM, the “Alternative Pathway IC50 (hemolysis), Cyno C3” value [9] was 4.8 nM and the “Classical Pathway IC50 (hemolysis), Cyno C3” value [9] was 0.6 nM. For the same binder, the “Alternative Pathway IC50 (hemolysis), Human C3” value [10] was 3.9 nM and the “Classical Pathway IC50 (hemolysis), Human C3” value [10] was 5.4 nM.

B4: Fab version of Hz38G10 (Fab, V domains shown)
VH: B3 VH with A56G
VL: DIQMTQSPSSLSASVGDRVTITCKASENVDTYVSWYQQKPGKAPKLLIYGASNRYTGVPSRFSGSGSGTDFTFTISSLQPEDIATYHCGQSHSYPLTFGQGTKLEIK
In the case of B4, the “AP human C3 IC50 (hemolysis)” value [11] is reported as 16 nM and the “CP human C3 IC50 (hemolysis)” value [11] is reported as 17.8 nM.

B5: antibody Hz38G10(N55D) (antibody, V domains shown)
VH: B3 VH with N55D, A56G
VL: B4 VL
notes: Variant of Hz38G10 with N55D in the heavy chain CDR2, mimicking a fully deamidated molecule
B5: binds [8].

B6: antibody Hz38G10(N55E) (antibody, V domains shown)
VH: B3 VH with N55E, A56G
VL: B4 VL
notes: Variant of Hz38G10
Binder B6 has a Kd [8] of 6.2 nM.

B7: antibody Hz38G10(N55Q) (antibody, V domains shown)
VH: B3 VH with N55Q, A56G
VL: B4 VL
notes: Variant of Hz38G10
B7 showed a Kd [8] of 0.82 nM.

B8: antibody Hz38G10(G56T) (antibody, V domains shown)
VH: B3 VH with A56T
VL: B4 VL
notes: Variant of Hz38G10
With B8 the Kd [8] was 0.23 nM.

B9: antibody 3G8 (antibody, V domains shown)
VH: EIQLQQSGAELVKPGASVKISCMASGYSFTGYNMNWVKQSHGKGLEWIGNINPYYDSTSYNQKFKGKATLTVDKSSSTAYMQLNSLTSEDSAVYYCARENYDFVGFAYWGQGTLVTVSA
VL: QIVLSQSPAILSASPGEKVTMTCRASSSVSYMHWFQQKPGSSPKPWIYVTSNLASGVPPRFSGSGSGTSYSLTISRVEAEDAATYYCQQWSTNPLTFGAGTKLELK
notes: Mouse hybridoma antibody
With B9 the “Hemolytic Assay IC50, Cyno AP” value [1] was 20.9 nM, the “Hemolytic Assay IC50, Cyno CP” value [1] was 102 nM and the “Hemolytic Assay IC50, Human AP” value [2] was 6.8 nM. The “Hemolytic Assay IC50, Human CP” value [2] was 10.4 nM, the “binding relative to negative control mIgG2” value [4] was 0.37 and the “binding relative to negative control mIgG2” value [5] was 0. For the same binder, the “binding relative to negative control mIgG2” value [6] was 0.33 and the “binding relative to negative control mIgG2” value [7] was -0.01.

B10: antibody 62F2 (antibody, V domains shown)
VH: DVQLQESGPDLVKPSQSLSLTCTVTGYSITSGYSLHWIRQFPGNKLEWMGYIHYSGSTNYNPSLKSRISITRDTSKNQFFLKLNSVTSEDTATYHCARAWDYLDYWGQGTTLTVSS
VL: DIQMTQSPASLSASVGETVTITCRASENIYSQLAWYQQKQGKSPQLLVYDAKTLAEGVPSRFSGSGSDTQFSLKIISLQPEDFGRYYCHHHFGILYTFGGGTKLEMK
notes: Mouse hybridoma antibody
For B10, the “Hemolytic Assay IC50, Cyno AP” value [1] was 8.7 nM, the “Hemolytic Assay IC50, Cyno CP” value [1] was 5.3 nM and the “Hemolytic Assay IC50, Human AP” value [2] was 5.7 nM. The “Hemolytic Assay IC50, Human CP” value [2] was 5 nM, the “binding relative to negative control mIgG2” value [4] was 0.7 and the “binding relative to negative control mIgG2” value [5] was 0.01. The “binding relative to negative control mIgG2” value [6] was 0.61 and the “binding relative to negative control mIgG2” value [7] was -0.04.

B11: antibody 38F5 (antibody, V domains shown)
VH: EVMLVESGGALVKPGGSLKLSCTASGFTFSNYAMSWVRQTPEKRLEWVAQTISSGGRYTYYPDSVKGRFTISRDNARNTLYLQMSSLRSEDTAMYYCVRRYYGNSYWYFDVWGAGTTVTVSS
VL: DIVMTQSPSSLSVSAGEKVTMNCKSSQSLLNSGNQKHYLTWYQQKPGQPPKLLIYGASTRGSGVPDRFTGSGSGTDFTLTISSVQAEDLAVYYCQNDHSYPYTFGGGTKLEIK
notes: Mouse hybridoma antibody
B11 was tested, and the “Hemolytic Assay IC50, Cyno AP” value [1] was 12.9 nM, the “Hemolytic Assay IC50, Cyno CP” value [1] was 2.3 nM and the “Hemolytic Assay IC50, Human AP” value [2] was 9.2 nM. For the same binder, the “Hemolytic Assay IC50, Human CP” value [2] was 6.7 nM, the “binding relative to negative control mIgG2” value [3] was -0.01 and the “binding relative to negative control mIgG2” value [4] was 0.83. The “binding relative to negative control mIgG2” value [5] was 0.01, the “binding relative to negative control mIgG2” value [6] was 0.66 and the “binding relative to negative control mIgG2” value [7] was 0.

B12: antibody 28C3 (antibody, V domains shown)
VH: QVQLQQSGPELVKPGASVKISCKASGYAFNSCWMNWVKQRPGKGLEWIGRIYPGDGDTNYNGKFKGKATLTADKSSTTAYMQLSSLTSEDSAVYFCAREGRNYGYEDYWGQGTTLTVSS
VL: DIVLTQSPASLAVSLGQRATISCKASQSVDYDGDSYMNWYQQKPGQPPKLLIYAASDLESGIPARFSGSGSGTDFTLNIHPVEEEDAATYYCQQANEDPRTFGGGTKLEIK
notes: Mouse hybridoma antibody
For B12, the “Hemolytic Assay IC50, Cyno AP” value [1] was 7.8 nM, the “Hemolytic Assay IC50, Cyno CP” value [1] was 3.4 nM and the “Hemolytic Assay IC50, Human AP” value [2] was 8 nM. For the same binder, the “Hemolytic Assay IC50, Human CP” value [2] was 6.5 nM, the “binding relative to negative control mIgG2” value [4] was 0.66 and the “binding relative to negative control mIgG2” value [5] was 0.01. For the same binder, the “binding relative to negative control mIgG2” value [6] was 0.09 and the “binding relative to negative control mIgG2” value [7] was 0.11.

B13: antibody 63A3 (antibody, V domains shown)
VH: DVQLQESGPGLVKPSQSLSLTCSVTGYSITSGYYWNWIRQFPGNKLEWMGYIRYDGSNNYNPSLKNRISITRDTSKNQVFLKLNSVTPEDTATYYCARHYGYDGGAFDFWGQGTTLTVSS
VL: DIQMTQSPASLSASVGETVTITCRTSENIYNYLVWYQQKQGKSPQLLVYNAKTLEEGVPSRFSGSGSGTQFSLKVNSLQPEDFGSYYCQHHYGTPFTFGSGTKLEIK
notes: Mouse hybridoma antibody
With B13 the “Hemolytic Assay IC50, Cyno AP” value [1] was 3.4 nM, the “Hemolytic Assay IC50, Cyno CP” value [1] was 1.6 nM and the “Hemolytic Assay IC50, Human AP” value [2] was 6.5 nM. The “Hemolytic Assay IC50, Human CP” value [2] was 4.1 nM, the “binding relative to negative control mIgG2” value [4] was 0.95 and the “binding relative to negative control mIgG2” value [5] was 0.01. The “binding relative to negative control mIgG2” value [6] was 0.83 and the “binding relative to negative control mIgG2” value [7] was -0.02.
